Holding throughout (assay): spectrophotometric electron acceptor reduction
What all share (conditions): apparent, 25 mM D-glucose, pH 4, 30 °C

Substrate in data set [1]: O=C1C(Cl)=CC(=Nc2ccc(O)cc2)C=C1Cl
The format is biochemical, Agaricus xanthodermus. An excerpt:
(§1) spectrophotometric electron acceptor reduction on AxPDH

Substrate in data set [2]: O=C1C=CC(=O)C=C1
The format is biochemical, Agaricus xanthodermus.
Source text: as §1

Substrate in data set [3]: O=C1C(Cl)=CC(=Nc2ccc(O)cc2)C=C1Cl
The format is biochemical, Agaricus campestris. The text has this:
(§2) spectrophotometric electron acceptor reduction on AcPDH

Substrate in data set [4]: O=C1C=CC(=O)C=C1
The format is biochemical, Agaricus campestris.
Source text: as §2

Usually Km stands for the concentration of substrate that gives half-maximal velocity. The term kcat denotes the number of substrate molecules converted per active site and unit of time at saturation. Broadly, the kcat/Km is the second-order rate constant that governs catalysis at low substrate concentration.

B1: AxPDH (Agaricus xanthodermus) (protein)
chain: AITYQHPDDLPSNVNYDFIVAGGGTAGLVVASRLSENSDWNILVIEAGPSNKDTPETRVPGLADSLPGSRTDWNYTTIPQDALGGRSLNYSRAKVLGGCSTHNGMVYTRGSEDDWNYWAEVTGDQALSWDSVLPIMKKAEKFSQDFSDQSVDGHIDPAVHGRDGLLSVVASYTNVSFNDLLLQTTKELSDEFPFKLDLNDGKPHELAWTQYTIDHNAERSSSATSYLETTGDNVHVLVNTHVTRIVSAGNGTNFRSVEFAVDSNSPKKVLQAKKELILSAGVIASPQVLMNSGIGGREELQAIGVDTLIDNPSVGKNLSDQAATLLMFDTTLPNTDYDVAAALTEWDKSRSGPMAHGARLNHLTWVRLPDDKLNGSDPSSGKDSPHIEFQFRQISHQLPPADVPNQVQLPDPDSIGVVLQFSVVNLYSISPGSVILNDNDPFANPMIDLNMFGDQKDIAILREGVRSARRMFSSPAFKDVINGTVYPPADVTSDEDLDAFLRTSAESYWHGVGTLSMSPQNASWGVVNPDFRVKGTSGLRVVDASVIPRAPAGHTQVPVYTFAEHASVLIAASYH
For B1, in data set [1], the Km came out at 90 ± 10 µM, the kcat stood at 7.65 ± 0.66 s⁻¹ and the kcat/Km came out at 85000 M⁻¹ s⁻¹. For the same protein, in data set [2], the Km worked out at 3250 ± 510 µM, the kcat stood at 12.9 ± 1.56 s⁻¹ and the specificity constant (kcat/Km) was found to be 4000 M⁻¹ s⁻¹.

B2: AcPDH (Agaricus campestris) (protein)
chain: AITYQHPDDLPGDVDYDFIVAGGGTAGLVVASRLGENSKWNVLVIEAGPSNKDVFATRVPGLAETLPTSHIDWNYTTVPQQALGGRSLNYSRAMILGGCSTHNGMVYTRGSKDDWNKWADVTGNRDLSWDSILPIMKKVEKFSEDFSDQSVEGHIDPSVHGNDGKLSVVASYTNVSFNDLLLETTKELVDEFPFKLDMNDGNPVGLTWNQYTIDHNAERSSSATAYLESTGDNVHVLLNTRVTRIVPTGKTNFRTVEFAVDAGGPRKQLTAKKEVILSGGFIASPQILMNSGIGDQEALKAVGVDTLVNNPSVGKNVSDQAATLVLFDTTLPNTDFDVDAAIVEWNNSHAGPLATGAPLNHLIWVRLSDDKLSGSDPSSGKDSPHIEFQFSKISHRIPPANVPNQVALPSQDSIGVVIQFSVVNLNSISRGSVSLNDNNPFSHPLIDLNMLGEEQDIAILREGVHSARRMLSSEAFKPFVNGSVHPPANITSDEDLDAFLHTTTKSYLHGVGTLSMSPQNASWGVVDPDFRVKGTTGLRVVDASVIPSVPAGHTQTPVYAFAEYASIVIAKSYN
B2: in data set [3], the Michaelis constant (Km) came out at 110 ± 0 µM, the kcat is 10.6 ± 0.57 s⁻¹ and the kcat/Km is 96000 M⁻¹ s⁻¹. Besides, in data set [4], the Km was 120 ± 10 µM, the kcat was 34.8 ± 1.02 s⁻¹ and the catalytic efficiency (kcat/Km) came to 303000 M⁻¹ s⁻¹.

Values taken from publication PMC4030953, “Pyranose Dehydrogenase from Agaricus campestris and Agaricus xanthoderma: Characterization and Applications in Carbohydrate Conversions” (Biomolecules, 2013).
